# From publication PMC5379070
# Columns and labels:
# Test in all cases: native gel or EMSA; blue-native PAGE of the trimer-size SEC fractions (Superdex 200 Increase, TBS) after antibody affinity purification
# [1] = target: 327c SOSIP.664 trimer (HIV-1 isolate 327c (subtype C))
# [2] = target: B41 SOSIP.664 trimer (HIV-1 isolate B41 (subtype B))
# [3] = target: CRF02_AG_250 SOSIP.664 trimer (HIV-1 isolate CRF02_AG_250 (subtype AG))
# [4] = target: SIV trimer SIVcpzMT145 SOSIP.664 (simian immunodeficiency virus SIVcpzMT145)
substance,measurement,setting,value
327c SOSIP.664 trimer (complex),stoichiometry N,[1],3
B41 SOSIP.664 trimer (complex),stoichiometry N,[2],3
CRF02_AG_250 SOSIP.664 trimer (complex),stoichiometry N,[3],3
SIV trimer SIVcpzMT145 SOSIP.664 (complex),stoichiometry N,[4],3
